The values that follow come from article PMC12974149.

In the assay the target is Rabbit skeletal actin, filamentous (F-actin) (rabbit) (UniProt P68135). The assay can be described thus: fluorescence microscopy of purified drebrin on actin filaments.

Regarding “mouse drebrin isoform E (natural protein)”, the fraction of actin filaments heavily (>50%) decorated by drebrin worked out at 16%.
